Experiment: yeast display, Sf9 membrane polyspecificity reagent, FACS + sequencing; frameworks hold sequencing errors
Procedure, shortened: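 A nanobody's polyreactivity label depends on the gate it was sorted from. Yeast display cells were stained with 10% biotinylated, detergent-solubilized Sf9 membrane reagent for 1 hour at 4 °C, enriched on streptavidin microbeads and sorted by FACS. The low and high (top ~1%) gates were set on anti-HA fluorescence for expression and streptavidin fluorescence for reagent binding.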

Sequence	polyreactivity (PSR sort gate)
QVQLVESGGGLVQAGGSLRLSCAASGRTFDTNAMGWYRQAPGKERELVAGITIGGSTNYADSVKGRFTISRDNAKNTVYLQMNILKPEDTAVYYCAADYGSVRGYAADYYEPEYDYWGQGTQVTVSS	low polyreactivity
QVQLVETGGGLVQAGGSLRLSCAASGFTYRRYAMGWYRQAPGKERELVAAINWNGDSTYYADSVKGRFTISRDNAKNTVYLQMNSLKPEDTAVYYCNAGWYGGRYSKFDYWGQGTQVTVSS	high polyreactivity
QVQLVESGRGLVQAGGSLRLSCAASGRIFKGYAMGWYRQAPGKERELVAAITTSGGGTYSADSVKGRFTFSRDNAKNTVYLQMNSLKPEDPAVYYCAKTLGSQNYDFDYWGQGTQVTVSS	low polyreactivity
QVQLVESGGGLVQAGGSLRLTCDASGYIFSKYAMGWYRQAPGKERELVAAISGSGGSTSYADSVKGRFTISRDNAKNTVYLQMYCLKPEDTAVYYCIARSRLQRGRMDYWGQGTQVTVSS	high polyreactivity
QVQLVESGGGLVQAGGSLRLSCAASGFTFWNNAMGWYRQAPGKERELVAAISWSGGSTYYADSVKGRFTISRDNAKNTFDLQMNRLKPEDSAVYYCAAGDGPWLPRVHYGGYGYWGQGTQVTVSS	high polyreactivity
QVQLVESGGGLVQAGGSLRLSCAASGSIFRPYAMGWYRQAPGKEREFVAAITYGGGNTYYADSVKGRFTISRDNAKNTFYLQMNILKPEDTAVYYCNKLSRGFSPKYDYWGQGTQVTVSS	high polyreactivity
QVQLVESGGGLVQAGGSLRLSCAASGSIFYLYTMGWYRQAPGKERELVASITYSGGTYYADSVKGRFTISRDNAKNTVYLQINSLKPEDTAVYYCNADASYYLDDEYDYWGQGTQVTVSS	low polyreactivity
QVQLEESGGGIVQAGGSLRLSCAASGGIFGTYAMGWYRQAPRKERELVASISSDTSTTYADSVKGRFTISRDNAKNTVYLQMNSLKAEDTAVYYCAAGSDYDDDYWGQGTQVTVSS	high polyreactivity
QFQLVESGGGLVQAGGSLRLSCAASGSIFYRYAMGSDRQAPGKERELVAAISTGGGSTKYADSVKGRFTISRHNAKNTVYLQMNSLKPEDTAVYYCAASRAVTQYSGGGYGGQGTQVTVSS	high polyreactivity
QVQLVESGGGLVQAGGSLRLSCAASGSIFRPYAMGWYRQAPGKERELVATINQSGSSTYYADSVKGRFTISRDNAKNTVYLQKNSLKPEDTAVYYCAVVYTYHGYTYDYWGQGTQVTVSS	low polyreactivity
QVQLVESGGGLVQAGGSLRLSCAASGFTFAFNDMGWYRQAPGKERELVAAITWSGGSTYYADSVKGRFTISRDNAKNTVYLQMNSLKPEDTAVYYCNADLLGYVYLNLPVGSWGQGTQVTVSS	low polyreactivity
QVQLVESGGGLVQAGGILRLSCAASGRIFKTYAMGWYRQAPGKERELVAAITASGGRTYYADSVKGRFTISRDNAKNTVYLQMNSLKPEDTAVYYCAADSGNEYDYWGQGTQVTVSS	low polyreactivity
QVQLVESCGGLVQAGGRLRLSCADYGRTFSWYAMGSYRQAPGKERELVAAITFRGGRTYYADSVKGRFTISRDNAKNTVYIQMNSLKPEDTAVYYFNAVTYSSPYRFDYCGQGTQVTVSS	low polyreactivity
QVQLVESGGGLVQAGGSLRLSCAASGFTFRLYAMGWYRQAPGKERELVAAISSRGTTTYYADSVKGRFTNSRDNAKKTGYLQMNSLKPEDTAVYNCNKEYTSYGYDLEYDYWGQGTQVTVSS	low polyreactivity
QVQLVESGGGLVQAGGSLRLSCAASGRIFGFYAMGWYRQAPGKERELVAAITNGGSTYYADSVKGRFTISRDNAKNTVDLQMNSLKPEDTAVYYCNKGRQAHLHITMDYWGQGTQVTLSS	low polyreactivity
QVQLVESGGGLVQAGGSLRLSCAASGSIFRFYTMGWYRQAPGKERELVASITWTGGSTYYADSVKGRFTISRDNAKNTVYLQMNSLKPEDTAVYYCAARRYRRLVGRYDYWGQGTQVTVSS	low polyreactivity
QVQLVESGGGLVQAGGSLRLSCAASGLIFTGYAMGWYRQAPGKERELVAAITSGGGTNYADSVKGRFTISRDNAKNTVYLQMNSLKPEDTAVYYCAVDFGHYYLYSITSYLWYWDGYDYWGQGTQVTVSS	low polyreactivity
QVQLVESGGGLVQAGGSLRLSCAASGSIFDYNAMGWYIQAPGKEREFVAAITYSGGSTYYADSVKGRFTISRDNAKYTVYLQMYSLKPEDSAVYYCGADYFQHVPKYGYCGQGTQVTVSS	low polyreactivity
QVQLVESGGGLVQAGGSHRLSCAASGSTFTTNAMGWYRQAPGKERELVAAISRRGGSTYYADSVKGRFTISRDNAKNTVYLQMNSLKPEDTAVYYCNAVRAEYEFDYWGQGTQVTVSS	high polyreactivity
QVQLVESGGGLVQAGGSLRLSCDASGSIFYGYAMGWYRQAPGKERELVASITGSGGSTSYADSVKGRFTISRDNAKKTVYLQMNSLKPEDTAVYYCNTVLLQLYKLASGFDYWGQGTQVTVSS	high polyreactivity
QVQLEESGGGLVQAGGSLRLSCAASGSTFPYYAMGWYRQAPGKERELVAVITSSGSRTYYADSVKGRFTISRDNAKNTVYLQMNSLKPEDTAVYYCARDTRYYRPNRSQYDYWGQGTQVTVSS	high polyreactivity
QVQLVESGGGLVQAGGSLRLSCAASGRTFRWYTMGWYRQAPGKEREFVAAITWSGSSTNYADSVKGRFTISRDNAKNTVYLQMNSLKPEDTAVYYCAAENRRRRDDYWGQGTQVTVSS	high polyreactivity

Sequence	polyreactivity (PSR sort gate)
QVQLVESGGGLVQAGGSLRLSCAASGFIFGWNAMGWYRQAPGKERELVAGISRGGRTYYADSVKGRFTISRDNAKNTVYLQMNSLKPEDTAVYYCNKRLYSSSAVDAYGYWGQGTQVTVSS	high polyreactivity
QVQLVESGGGLVQAGGSLRLSCAASGSIFELNAMGWYRQAPGKEMELVAAIRWRTGRTYYADSVKGRFTISRDNAKNTVYLLMNSLKPEDTAVYYCNADVTSLTRVHGRFIVSDYDYWGQGTQVTVSS	low polyreactivity
QVQLVESGGGLVQAGGSLRLSCAASGRIFASYAMGWYRQAPGKERELVAAISLSGGSTYYADSVKGRFTISRDNAKNTVYLQMNSLKPEDTAVYYCAAKNYRRYRDYYWGQGTQVTVSS	high polyreactivity
QVQLVESGGGLGQAGGSLRLSCAASGSIFQPYAMGGYRQAPGKERELVAAISSSGGSTTYADSVKGRFTISRDNAKNTVYLQMNSLKPEDTAVYYCAAEYDGPYTWVDYFYHYGYWGQGTQVTVSS	low polyreactivity
QVQLEESGGGLVQAGGSLRLSCAASGSIFFYYAMGWYRQAPGKERELVAAIRSGTSTNYADSVKGRFTISRDNAKNTVYLQMNSLKPEDTAVYYCAARFPGGCYGMDYWGQGTQVTVSS	low polyreactivity
QVQLVESGGGLVQAGGSLRLSCAASGRIFKRYAMGWYRQAPGKERELVAAITSSGGRTYYADSVKGRFTISRDNAKNTVYLQMNSLKPEDTAVYYCNVDSANRDGYWGQGTQVTVSS	high polyreactivity
QVQLVESGGGLVQAGGSLRLSCAASGSIFRRYAMGWYRQAPGKERELVAAISGSAGSTYYADSVKGRFTISRDNAKNTVYLQMNSLKPEDTAVYYCAADPDDGYDYWGQVTQVTVSS	low polyreactivity
QVQLVESGGGLVQAGGSLRLSCAASGSIFGPYAMGWYRQAPGKERELVATITTNGGSTYYADSVKGRFTISRDNAKNTVYLQMNSLKPEDTAVYYCATQHTDYVGAATTYNYWGQGTQVTVSS	low polyreactivity
QVQLVESGGGLVQAGGSLRLSCAASGRTFSFYAMGWYRQAPGKERELVAAISRGGGSTYYADSVKGRFTISRDNAKNTVYLQMNSLKPEDTAVYYCAAPFLYRRGYDYWGQGTQVTVSS	high polyreactivity
QVQLVESGGGLVQAGGSLRLSCADSGITFFIYAMGWYIQAPGKERELVAAISGRSGSTYYADSVKGRFTISRDNAKNTVYLQMNSLKPEDTAVYYCAAGLTFFSYSLDYWGQGTQVTVSS	low polyreactivity
QVQLVESGGGLVQAGGSLRLSCAASGSIFEVYAMGWYRQAPGKERELVAAINYTGGSTYYADSVKGRFTISRDNAKNTVYLQMNSLKPEDTAVYYCARDTSGIGTRYDYWGQGTQVTVSS	low polyreactivity
QVQLVESGGGLVQAGGSLRLSCAASGRIFYHNARGWYRQAPGKERELVAAIYSTGGSTYYADSVKGRFTISRDNAKNTVYLQMNSLKPEDTAVYYCATQYFRKYGYDYWGKGTQVTVSS	low polyreactivity
QVQLVESGGGLVQAGGSLRLSCAASGSIFHGYTMGWYIQSPGKERELVAAISRRGDSTYYADSVKGRFTISRDNAKNTVYLQMNSLKPEDTAVYYCATVFYRTRYVPYGYWGQGTQVTVSS	low polyreactivity
QVQLVESGGGLVQAGGSLRLSCAASGYIFVRNAMGWYRQAPGKERELVAAISGSGGSTYYADSVKGRFTISRDNAKNTVYLQMNSLKPEDTAVYYFAADYATVTWRGIAYDYWGQGTQVSVSS	low polyreactivity
QVHLVESGRGLFQAGGSLRLSCAASGSIFGYNAMGWYRQAPGKERELVAAITWRGGSTYYADSVKGRFTISRDNAKNTVYLQMNSLKPEDTAVYDCAAYVYQEYDYWGQGTQVTVSS	high polyreactivity
QVQLVESGGGLVQAGGSLRLSCAASGLTFPSNAMGWYRPAPGKERELVAAISKRGGRTYYADSVKGRFTISRDNAKNTVYLQMNSLKPEDTAVYYCATPYAYPGTVQYAGYNYWGQGTQVTVSS	high polyreactivity
QVQLVESGGGLVQAGGSLRLSCAASGYIFGSYTMGWYRQAPGKERELVAGISRRGGGTYYADSVKGRFTMSRDNAKNNVYLQMNSLIPEDTAVYYCAAEVITIGLYRYGFWGQGTQVSVSS	high polyreactivity
QVQLVESGGGLVQAGGSLRLSCAASGSTSPGYAMGWYRQAPGKERELVAAITFRGTRTYYADSVKGRFTISRDNAKNTVYLQMNSLKPEDTAVFYCNVVGYGPNRGRVDYWGQGTQVTVSS	high polyreactivity
QVQLVESGGGLVQAGGSLRLSCAASGRTFLGYAMGWYRQAPGKERELVAAISYSGSSTYYADSVKGRFTITRDNAKITVYLQMNSLKPEDTAVYYCAAQFFFLFDYWGQGTQVTLSS	low polyreactivity
QVQLVESGGGLVQAGGSLRLSCAASGGTLDVYAMGWYRQAPGKEREFVAAISWSGGRTYYADSVKGRFTISRDNAKNTVYLQMNSLKPEDTAVYYCATRDRAGYYYWGQGTQVTVSS	high polyreactivity
QVQLVESWGGLVQAGGSLRLSCAASGSTITAKAMGWYRQAPGKERELVAAITKSGGDTYYADSVKGRFTISRDNAKNTVYLQMNSLKPEDTAVYYCAARIRPYAYRSLYGYWGQGTQVTVSS	low polyreactivity

From the nanobody polyreactivity screen of Harvey et al. (2022)
